Laboratory results from patent US20110166062A1 (INDIANA UNIVERSITY RESEARCH AND TECHNOLOGY, published 2011).
Bridges are numbered along the chain shown (N, C = ends). Where no end group is shown, it is not given here.

T1: GIP receptor (UniProt P48546 22-466)
T1 sequence (looked up): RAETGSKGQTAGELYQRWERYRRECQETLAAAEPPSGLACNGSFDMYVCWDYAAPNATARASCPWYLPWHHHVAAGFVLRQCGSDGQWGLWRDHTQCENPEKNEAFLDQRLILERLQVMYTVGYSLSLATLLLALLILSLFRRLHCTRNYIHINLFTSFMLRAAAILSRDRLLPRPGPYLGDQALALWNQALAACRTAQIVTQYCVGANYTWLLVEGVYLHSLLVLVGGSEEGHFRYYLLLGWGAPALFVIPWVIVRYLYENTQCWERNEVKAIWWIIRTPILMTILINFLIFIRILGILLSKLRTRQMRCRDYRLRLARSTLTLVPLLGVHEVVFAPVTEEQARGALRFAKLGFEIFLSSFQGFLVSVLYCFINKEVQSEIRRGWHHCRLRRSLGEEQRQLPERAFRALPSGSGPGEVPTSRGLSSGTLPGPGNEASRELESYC


Columns and labels:
GIP receptor = biological target: T1, GIP receptor; assay: cell-based or functional assay
GLP-1 receptor = GLP-1 receptor (UniProt P43220 24-463, limits assumed); assay: cell-based or functional assay

Binder	EC50 (GIP receptor) [nM]	EC50 (GLP-1 receptor) [nM]	relative activity (GIP receptor) [%]	relative activity (GLP-1 receptor) [%]
HSQGTFTSDYSKYLDEIHQKEFIAWLMNT-NH2 (lactam 12-16; N-terminus assumed; SMILES CC[C@H](C)[C@H](NC(=O)[C@H](Cc1ccccc1)NC(=O)[C@H](CCC(=O)O)NC(=O)[C@H](CCCCN)NC(=O)[C@H](CCC(N)=O)NC(=O)[C@H](Cc1c[nH]cn1)NC(=O)[C@@H](NC(=O)[C@@H]1CCC(=O)NCCCC[C@H](NC(=O)[C@H](CO)NC(=O)[C@H](Cc2ccc(O)cc2)NC(=O)[C@H](CC(=O)O)NC(=O)[C@H](CO)NC(=O)[C@@H](NC(=O)[C@H](Cc2ccccc2)NC(=O)[C@@H](NC(=O)CNC(=O)[C@H](CCC(N)=O)NC(=O)[C@H](CO)NC(=O)[C@@H](N)Cc2c[nH]cn2)[C@@H](C)O)[C@@H](C)O)C(=O)N[C@@H](Cc2ccc(O)cc2)C(=O)N[C@@H](CC(C)C)C(=O)N[C@@H](CC(=O)O)C(=O)N1)[C@@H](C)CC)C(=O)N[C@@H](C)C(=O)N[C@@H](Cc1c[nH]c2ccccc12)C(=O)N[C@@H](CC(C)C)C(=O)N[C@@H](CCSC)C(=O)N[C@@H](CC(N)=O)C(=O)N[C@H](C(N)=O)[C@@H](C)O) [mt-63]		0.31		
HSQGTFTSDYSKYLDEIHQKEFIAWLMNT-NH2 (lactam 16-20; N-terminus assumed; SMILES CC[C@H](C)[C@H](NC(=O)[C@H](Cc1ccccc1)NC(=O)[C@H](CCC(=O)O)NC(=O)[C@@H]1CCCCNC(=O)CC[C@H](NC(=O)[C@H](CC(=O)O)NC(=O)[C@H](CC(C)C)NC(=O)[C@H](Cc2ccc(O)cc2)NC(=O)[C@H](CCCCN)NC(=O)[C@H](CO)NC(=O)[C@H](Cc2ccc(O)cc2)NC(=O)[C@H](CC(=O)O)NC(=O)[C@H](CO)NC(=O)[C@@H](NC(=O)[C@H](Cc2ccccc2)NC(=O)[C@@H](NC(=O)CNC(=O)[C@H](CCC(N)=O)NC(=O)[C@H](CO)NC(=O)[C@@H](N)Cc2c[nH]cn2)[C@@H](C)O)[C@@H](C)O)C(=O)N[C@@H]([C@@H](C)CC)C(=O)N[C@@H](Cc2c[nH]cn2)C(=O)N[C@@H](CCC(N)=O)C(=O)N1)C(=O)N[C@@H](C)C(=O)N[C@@H](Cc1c[nH]c2ccccc12)C(=O)N[C@@H](CC(C)C)C(=O)N[C@@H](CCSC)C(=O)N[C@@H](CC(N)=O)C(=O)N[C@H](C(N)=O)[C@@H](C)O) [mt-61]	9.99	0.18		
HSQGTFTSDYSKYLDKIHQEEFIAWLMNT-NH2 (lactam 16-20; N-terminus assumed; SMILES CC[C@H](C)[C@H](NC(=O)[C@H](Cc1ccccc1)NC(=O)[C@H](CCC(=O)O)NC(=O)[C@@H]1CCC(=O)NCCCC[C@H](NC(=O)[C@H](CC(=O)O)NC(=O)[C@H](CC(C)C)NC(=O)[C@H](Cc2ccc(O)cc2)NC(=O)[C@H](CCCCN)NC(=O)[C@H](CO)NC(=O)[C@H](Cc2ccc(O)cc2)NC(=O)[C@H](CC(=O)O)NC(=O)[C@H](CO)NC(=O)[C@@H](NC(=O)[C@H](Cc2ccccc2)NC(=O)[C@@H](NC(=O)CNC(=O)[C@H](CCC(N)=O)NC(=O)[C@H](CO)NC(=O)[C@@H](N)Cc2c[nH]cn2)[C@@H](C)O)[C@@H](C)O)C(=O)N[C@@H]([C@@H](C)CC)C(=O)N[C@@H](Cc2c[nH]cn2)C(=O)N[C@@H](CCC(N)=O)C(=O)N1)C(=O)N[C@@H](C)C(=O)N[C@@H](Cc1c[nH]c2ccccc12)C(=O)N[C@@H](CC(C)C)C(=O)N[C@@H](CCSC)C(=O)N[C@@H](CC(N)=O)C(=O)N[C@H](C(N)=O)[C@@H](C)O) [mt-69]	14.6	0.41	0.57	
HSQGTFTSDYSKYLDKIHQEEFIAWLMNT-NH2 [mt-68]		0.82		

The next lines start with the values.

EC50 (GIP receptor) [nM]	EC50 (GLP-1 receptor) [nM]	relative activity (GIP receptor) [%]	relative activity (GLP-1 receptor) [%]	Binder
0.518	0.055			YSQGTFTSDYSKYLDEQAAKEFVNWLLAGGPSSGAPPPS-NH2 (lactam 16-20; N-terminus assumed; SMILES CC(C)C[C@H](NC(=O)[C@H](CC(C)C)NC(=O)[C@H](Cc1c[nH]c2ccccc12)NC(=O)[C@H](CC(N)=O)NC(=O)[C@@H](NC(=O)[C@H](Cc1ccccc1)NC(=O)[C@H](CCC(=O)O)NC(=O)[C@@H]1CCCCNC(=O)CC[C@H](NC(=O)[C@H](CC(=O)O)NC(=O)[C@H](CC(C)C)NC(=O)[C@H](Cc2ccc(O)cc2)NC(=O)[C@H](CCCCN)NC(=O)[C@H](CO)NC(=O)[C@H](Cc2ccc(O)cc2)NC(=O)[C@H](CC(=O)O)NC(=O)[C@H](CO)NC(=O)[C@@H](NC(=O)[C@H](Cc2ccccc2)NC(=O)[C@@H](NC(=O)CNC(=O)[C@H](CCC(N)=O)NC(=O)[C@H](CO)NC(=O)[C@@H](N)Cc2ccc(O)cc2)[C@@H](C)O)[C@@H](C)O)C(=O)N[C@@H](CCC(N)=O)C(=O)N[C@@H](C)C(=O)N[C@@H](C)C(=O)N1)C(C)C)C(=O)N[C@@H](C)C(=O)NCC(=O)NCC(=O)N1CCC[C@H]1C(=O)N[C@@H](CO)C(=O)N[C@@H](CO)C(=O)NCC(=O)N[C@@H](C)C(=O)N1CCC[C@H]1C(=O)N1CCC[C@H]1C(=O)N1CCC[C@H]1C(=O)N[C@@H](CO)C(N)=O) [mt-127]
1.09	9.94			YAQGTFISDYSKYLDEQAAKEFVNWLLAGGPSSGAPPPS-NH2 (lactam 16-20; N-terminus assumed; SMILES CC[C@H](C)[C@H](NC(=O)[C@H](Cc1ccccc1)NC(=O)[C@@H](NC(=O)CNC(=O)[C@H](CCC(N)=O)NC(=O)[C@H](C)NC(=O)[C@@H](N)Cc1ccc(O)cc1)[C@@H](C)O)C(=O)N[C@@H](CO)C(=O)N[C@@H](CC(=O)O)C(=O)N[C@@H](Cc1ccc(O)cc1)C(=O)N[C@@H](CO)C(=O)N[C@@H](CCCCN)C(=O)N[C@@H](Cc1ccc(O)cc1)C(=O)N[C@@H](CC(C)C)C(=O)N[C@@H](CC(=O)O)C(=O)N[C@H]1CCC(=O)NCCCC[C@@H](C(=O)N[C@@H](CCC(=O)O)C(=O)N[C@@H](Cc2ccccc2)C(=O)N[C@H](C(=O)N[C@@H](CC(N)=O)C(=O)N[C@@H](Cc2c[nH]c3ccccc23)C(=O)N[C@@H](CC(C)C)C(=O)N[C@@H](CC(C)C)C(=O)N[C@@H](C)C(=O)NCC(=O)NCC(=O)N2CCC[C@H]2C(=O)N[C@@H](CO)C(=O)N[C@@H](CO)C(=O)NCC(=O)N[C@@H](C)C(=O)N2CCC[C@H]2C(=O)N2CCC[C@H]2C(=O)N2CCC[C@H]2C(=O)N[C@@H](CO)C(N)=O)C(C)C)NC(=O)[C@H](C)NC(=O)[C@H](C)NC(=O)[C@H](CCC(N)=O)NC1=O) [mt-145]
0.132	0.041	36.4	163	YAEGTFTSDYSIYMDEQAAKEFVNWLLAGGPSSGAPPPS-NH2 (lactam 16-20; N-terminus assumed; SMILES CC[C@H](C)[C@H](NC(=O)[C@H](CO)NC(=O)[C@H](Cc1ccc(O)cc1)NC(=O)[C@H](CC(=O)O)NC(=O)[C@H](CO)NC(=O)[C@@H](NC(=O)[C@H](Cc1ccccc1)NC(=O)[C@@H](NC(=O)CNC(=O)[C@H](CCC(=O)O)NC(=O)[C@H](C)NC(=O)[C@@H](N)Cc1ccc(O)cc1)[C@@H](C)O)[C@@H](C)O)C(=O)N[C@@H](Cc1ccc(O)cc1)C(=O)N[C@@H](CCSC)C(=O)N[C@@H](CC(=O)O)C(=O)N[C@H]1CCC(=O)NCCCC[C@@H](C(=O)N[C@@H](CCC(=O)O)C(=O)N[C@@H](Cc2ccccc2)C(=O)N[C@H](C(=O)N[C@@H](CC(N)=O)C(=O)N[C@@H](Cc2c[nH]c3ccccc23)C(=O)N[C@@H](CC(C)C)C(=O)N[C@@H](CC(C)C)C(=O)N[C@@H](C)C(=O)NCC(=O)NCC(=O)N2CCC[C@H]2C(=O)N[C@@H](CO)C(=O)N[C@@H](CO)C(=O)NCC(=O)N[C@@H](C)C(=O)N2CCC[C@H]2C(=O)N2CCC[C@H]2C(=O)N2CCC[C@H]2C(=O)N[C@@H](CO)C(N)=O)C(C)C)NC(=O)[C@H](C)NC(=O)[C@H](C)NC(=O)[C@H](CCC(N)=O)NC1=O) [mt-142]
0.569	0.142			YSQGTFTSDYSKYLDEQAAKEFIAWLLAGGPSSGAPPPS-NH2 (lactam 16-20; N-terminus assumed; SMILES CC[C@H](C)[C@H](NC(=O)[C@H](Cc1ccccc1)NC(=O)[C@H](CCC(=O)O)NC(=O)[C@@H]1CCCCNC(=O)CC[C@H](NC(=O)[C@H](CC(=O)O)NC(=O)[C@H](CC(C)C)NC(=O)[C@H](Cc2ccc(O)cc2)NC(=O)[C@H](CCCCN)NC(=O)[C@H](CO)NC(=O)[C@H](Cc2ccc(O)cc2)NC(=O)[C@H](CC(=O)O)NC(=O)[C@H](CO)NC(=O)[C@@H](NC(=O)[C@H](Cc2ccccc2)NC(=O)[C@@H](NC(=O)CNC(=O)[C@H](CCC(N)=O)NC(=O)[C@H](CO)NC(=O)[C@@H](N)Cc2ccc(O)cc2)[C@@H](C)O)[C@@H](C)O)C(=O)N[C@@H](CCC(N)=O)C(=O)N[C@@H](C)C(=O)N[C@@H](C)C(=O)N1)C(=O)N[C@@H](C)C(=O)N[C@@H](Cc1c[nH]c2ccccc12)C(=O)N[C@@H](CC(C)C)C(=O)N[C@@H](CC(C)C)C(=O)N[C@@H](C)C(=O)NCC(=O)NCC(=O)N1CCC[C@H]1C(=O)N[C@@H](CO)C(=O)N[C@@H](CO)C(=O)NCC(=O)N[C@@H](C)C(=O)N1CCC[C@H]1C(=O)N1CCC[C@H]1C(=O)N1CCC[C@H]1C(=O)N[C@@H](CO)C(N)=O) [mt-139]
71.3		0.06		YAPGTFISDYSIAMDKIHQQDFVNWLLAQKGKKNWLKHNITQ-NH2 [mt-101]
